This is an account of results in patent US20170081400A1 (CEPHALON, published 2017).

In test [1] the target is T1, human TL1A extracellular domain with N-terminal HIS and FLAG tag (human) (UniProt O95150).
T1 sequence: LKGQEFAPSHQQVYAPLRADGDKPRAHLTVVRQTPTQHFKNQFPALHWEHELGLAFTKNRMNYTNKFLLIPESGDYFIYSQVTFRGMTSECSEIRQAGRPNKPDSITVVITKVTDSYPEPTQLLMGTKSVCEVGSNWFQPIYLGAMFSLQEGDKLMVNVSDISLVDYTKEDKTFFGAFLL
Kind of test: cell-based or functional assay.

The target of test [2] is T2, human TL1A extracellular domain with N-terminal HIS and FLAG tag (human, UniProt O95150 72-251).
T2 construct: whole entry named. ~70 kDa fraction purified by gel filtration
T2 sequence: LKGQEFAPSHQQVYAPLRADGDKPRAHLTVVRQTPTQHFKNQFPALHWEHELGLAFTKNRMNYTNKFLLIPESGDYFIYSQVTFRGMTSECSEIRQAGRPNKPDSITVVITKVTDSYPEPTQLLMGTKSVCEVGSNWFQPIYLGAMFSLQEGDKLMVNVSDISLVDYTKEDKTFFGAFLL
Kind of test: SPR run 3; supernatant on Protein A; TL1A 10 ug/mL; timepoint 590. An excerpt: (§1) 1.5. Antibody expression and antigen binding as determined by SPR. Using a CM5 sensor chip (GE Healthcare) Protein A (Pierce) was coupled to the chip surface using an amine coupling kit (GE Healthcare). Protein A was coupled on flow cell 1 and 2 (or alternatively 3 and 4) using a BIACORE® T200. […] The amount of supernatant or purified protein (as well as the concentration) injected during the capture stage varied between runs and is specified in the header of the Tables 3-11. At the end of injection of the supernatant or purified antibody the change in response units was measured. This value was reported as Capture Level in Tables 3-11. […] The response units were measured prior to the end of the dissociation phase. […] The sensorgrams were double referenced (flow cell 2 is subtracted from flow cell 1 and a buffer blank). As there were a large number of antibody variants to screen, these were screened across different runs (Tables 3-11). […] A summary of the conditions used in each run is below:
(§2) 2.1. […] In some experiment the antibodies were purified using Protein A chromatography (See 1.4) and purified antibodies were used in BIACORE® (GE Healthcare) experiments.

Test [3] addresses T2, human TL1A extracellular domain with …. As to the kind of experiment: SPR run 3; supernatant on Protein A; TL1A 10 ug/mL; timepoint 59.
From the text: as §1, §2

Test [4] has as its target T3, human TL1A extracellular domain with N-terminal HIS and FLAG tag (human, UniProt O95150 72-251).
T3 construct: the whole entry is named; also called TNFSF15
T3 sequence: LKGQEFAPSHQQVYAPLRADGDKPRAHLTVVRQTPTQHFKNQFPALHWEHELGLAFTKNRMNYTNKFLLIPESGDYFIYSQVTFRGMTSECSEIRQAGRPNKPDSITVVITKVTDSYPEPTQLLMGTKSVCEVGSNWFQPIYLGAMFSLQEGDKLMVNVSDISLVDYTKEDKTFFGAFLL
Kind of test: SPR Run 9, antibody on Protein A, TL1A 5 ug/mL, timepoint 590.
From the text: as §1, §2

Test [5] addresses T3, human TL1A extracellular domain with …. Kind of test: SPR Run 9, antibody on Protein A, TL1A 5 ug/mL, timepoint 44.
From the text: as §1, §2

B1: 320-307 (antibody, human IgG1, name in Kabat numbering, V domains shown)
VH: QVQLVQSGAEVKKPGASVKVSCKASGYTFTSYDINWVRQAPGQGLEWMGWLNPNSGNTGYAQKFQGRVTMTADRSTSTAYMELSSLRSEDTAVYYCAREVPETAAFEYWGQGTLVTVSS
VL: QSVLTQPPSVSGAPGQRVTISCTSSSSDIGAGLGVLWYQQLPGTAPKLLIEGYYNRPSGVPDRFSGSKSGTSASLTITGLLPEDEGDYYCQSYDGTLSALFGGGTKLTVLG
notes: human IgG1, lambda
In the case of B1, in test [1], the Antibody IC50, TL1A induced caspase potency assay in TF-1 cells was determined as 0.01 mg/L and the Fold improvement over 320-179, TL1A induced caspase potency assay in TF-1 cells was determined as 4 fold. Further, the “TL1A Binding Level (Late)” value in test [2] was determined as 200 RU. In test [3], the “TL1A Binding Level (Early)” value is 216 RU.

B2: 320-600 (antibody, human IgG1, name in Kabat numbering, V domains shown)
VH: QVQLVQSGAEVKKPGASVKVSCKASGYTFTSYDINWVRQAPGQGLEWMGWLNPNSGNTGYAQKFQGRVTMTADRSTSTAYMELSSLRSEDTAVYYCAREVPETAAFEYWGQGTLVTVSS
VL: QSVLTQPPSVSGAPGQRVTISCTSSSSDIGAALGVHWYQQLPGTAPKLLIEGYYNRPSGVPDRFSGSKSGTSASLTITGLLPEDEGDYYCQSFDGTLSALFGGGTKLTVLG
notes: full-length human IgG1, lambda
On to B2, for which, in test [4], the “TL1A Binding Level (Late)” value worked out at 104 RU. In addition, the “TL1A Binding Level (Early)” value in test [5] came to 111 RU.

B3: 320-615 (antibody, human IgG1, name in Kabat numbering, V domains shown)
VH: QVQLVQSGAEVKKPGASVKVSCKASGYTFTSYDINWVRQAPGQGLEWMGWLNPNSGYTGYAQKFQGRVTMTADRSTSTAYMELSSLRSEDTAVYYCAREVPETAAFEYWGQGTLVTVSS
VL: QSVLTQPPSVSGAPGQRVTISCTSSSSDIGAGLGVHWYQQLPGTAPKLLIEGYYNRPSGVPDRFSGSKSGTSASLTITGLLPEDEGDYYCQSYDYTLSALFGGGTKLTVLG
notes: as for B2
B3: the “TL1A Binding Level (Late)” value in test [4] was 108 RU. In test [5], the “TL1A Binding Level (Early)” value is 113 RU.

B4: 320-597 (antibody, human IgG1, name in Kabat numbering, V domains shown)
VH: QVQLVQSGAEVKKPGASVKVSCKASGYTFTSYDINWVRQAPGQGLEWMGWLNPNSGNTGYAQKFQGRVTMTADRSTSTAYMELSSLRSEDTAVYYCAREVPETAAFEYWGQGTLVTVSS
VL: QSVLTQPPSVSGAPGQRVTISCTSSSSDIGAGQGVHWYQQLPGTAPKLLIEGYYNRPSGVPDRFSGSKSGTSASLTITGLLPEDEGDYYCQSFDGTLSALFGGGTKLTVLG
notes: as for B2
Turning to B4, the “TL1A Binding Level (Late)” value in test [4] was found to be 105 RU. Also, the “TL1A Binding Level (Early)” value in test [5] turned out to be 115 RU.

B5: 320-598 (antibody, human IgG1, name in Kabat numbering, V domains shown)
VH: QVQLVQSGAEVKKPGASVKVSCKASGYTFTSYDINWVRQAPGQGLEWMGWLNPNSGNTGYAQKFQGRVTMTADRSTSTAYMELSSLRSEDTAVYYCAREVPETAAFEYWGQGTLVTVSS
VL: QSVLTQPPSVSGAPGQRVTISCTSSSSDIGAGLGVLWYQQLPGTAPKLLIEGYYNRPSGVPDRFSGSKSGTSASLTITGLLPEDEGDYYCQSFDGTLSALFGGGTKLTVLG
notes: as for B2
As for B5, the “TL1A Binding Level (Late)” value in test [4] was found to be 101 RU. For the same molecule, the “TL1A Binding Level (Early)” value in test [5] was found to be 112 RU.

B6: 320-605 (antibody, human IgG1, name in Kabat numbering, V domains shown)
VH: QVQLVQSGAEVKKPGASVKVSCKASGYTFTSYDINWVRQAPGQGLEWMGWLNPNSGYTGYAQKFQGRVTMTADRSTSTAYMELSSLRSEDTAVYYCAREVPETAAFEYWGQGTLVTVSS
VL: QSVLTQPPSVSGAPGQRVTISCTSSSSDIGAALGVHWYQQLPGTAPKLLIEGYYNRPSGVPDRFSGSKSGTSASLTITGLLPEDEGDYYCQSFDGTLSALFGGGTKLTVLG
notes: as for B2
For B6, in test [4], the “TL1A Binding Level (Late)” value worked out at 120 RU. In addition, the “TL1A Binding Level (Early)” value in test [5] came out at 125 RU.

B7: 320-599 (antibody, human IgG1, name in Kabat numbering, V domains shown)
VH: QVQLVQSGAEVKKPGASVKVSCKASGYTFTSYDINWVRQAPGQGLEWMGWLNPNSGNTGYAQKFQGRVTMTADRSTSTAYMELSSLRSEDTAVYYCAREVPETAAFEYWGQGTLVTVSS
VL: QSVLTQPPSVSGAPGQRVTISCTSSSSDIGAGSGVHWYQQLPGTAPKLLIEGYYNRPSGVPDRFSGSKSGTSASLTITGLLPEDEGDYYCQSFDGTLSALFGGGTKLTVLG
notes: as for B2
On to B7, for which the “TL1A Binding Level (Late)” value in test [4] was found to be 103 RU. For the same molecule, in test [5], the “TL1A Binding Level (Early)” value stood at 113 RU.

B8: 320-603 (antibody, human IgG1, name in Kabat numbering, V domains shown)
VH: QVQLVQSGAEVKKPGASVKVSCKASGYTFTSYDINWVRQAPGQGLEWMGWLNPNSGYTGYAQKFQGRVTMTADRSTSTAYMELSSLRSEDTAVYYCAREVPETAAFEYWGQGTLVTVSS
VL: QSVLTQPPSVSGAPGQRVTISCTSSSSDIGAGLGVLWYQQLPGTAPKLLIEGYYNRPSGVPDRFSGSKSGTSASLTITGLLPEDEGDYYCQSFDGTLSALFGGGTKLTVLG
notes: as for B2
Regarding B8, in test [4], the “TL1A Binding Level (Late)” value stood at 118 RU. Further, in test [5], the “TL1A Binding Level (Early)” value worked out at 126 RU.

B9: 320-616 (antibody, human IgG1, name in Kabat numbering, V domains shown)
VH: QVQLVQSGAEVKKPGASVKVSCKASGYTFTSYDINWVRQAPGQGLEWMGWLNPNSGYTGYAQKFQGRVTMTADRSTSTAYMELSSLRSEDTAVYYCAREVPETAAFEYWGQGTLVTVSS
VL: QSVLTQPPSVSGAPGQRVTISCTSSSSDIGAGLGVHWYQQLPGTAPKLLIEGYYNRPSGVPDRFSGSKSGTSASLTITGLLPEDEGDYYCQSYDATLSALFGGGTKLTVLG
notes: as for B2
Turning to B9, the “TL1A Binding Level (Late)” value in test [4] amounted to 112 RU. Further, in test [5], the “TL1A Binding Level (Early)” value worked out at 120 RU.

B10: 320-596 (antibody, human IgG1, name in Kabat numbering, V domains shown)
VH: QVQLVQSGAEVKKPGASVKVSCKASGYTFTSYDINWVRQAPGQGLEWMGWLNPNSGNTGYAQKFQGRVTMTADRSTSTAYMELSSLRSEDTAVYYCAREVPETAAFEYWGQGTLVTVSS
VL: QSVLTQPPSVSGAPGQRVTISCTSSSSDIGAGLGVHWYQQLPGTAPKLLIEGYYNRPSGVPDRFSGSKSGTSASLTITGLLPEDEGDYYCQSFDGTLSALFGGGTKLTVLG
notes: as for B2
In the case of B10, in test [4], the “TL1A Binding Level (Late)” value stood at 85 RU. Moreover, in test [5], the “TL1A Binding Level (Early)” value is 95 RU.

B11: 320-614 (antibody, human IgG1, name in Kabat numbering, V domains shown)
VH: QVQLVQSGAEVKKPGASVKVSCKASGYTFTSYDINWVRQAPGQGLEWMGWLNPNSGYTGYAQKFQGRVTMTADRSTSTAYMELSSLRSEDTAVYYCAREVPETAAFEYWGQGTLVTVSS
VL: QSVLTQPPSVSGAPGQRVTISCTSSSSDIGAGLGVHWYQQLPGTAPKLLIEGYYNRPSGVPDRFSGSKSGTSASLTITGLLPEDEGDYYCQSYDKTLSALFGGGTKLTVLG
notes: as for B2
Take B11: the “TL1A Binding Level (Late)” value in test [4] is 111 RU. For the same molecule, the “TL1A Binding Level (Early)” value in test [5] was found to be 122 RU.

B12: 320-602 (antibody, human IgG1, name in Kabat numbering, V domains shown)
VH: QVQLVQSGAEVKKPGASVKVSCKASGYTFTSYDINWVRQAPGQGLEWMGWLNPNSGYTGYAQKFQGRVTMTADRSTSTAYMELSSLRSEDTAVYYCAREVPETAAFEYWGQGTLVTVSS
VL: QSVLTQPPSVSGAPGQRVTISCTSSSSDIGAGQGVHWYQQLPGTAPKLLIEGYYNRPSGVPDRFSGSKSGTSASLTITGLLPEDEGDYYCQSFDGTLSALFGGGTKLTVLG
notes: as for B2
Turning to B12, in test [4], the “TL1A Binding Level (Late)” value stood at 125 RU. In addition, in test [5], the “TL1A Binding Level (Early)” value stood at 131 RU.

B13: 320-612 (antibody, human IgG1, name in Kabat numbering, V domains shown)
VH: QVQLVQSGAEVKKPGASVKVSCKASGYTFTSYDINWVRQAPGQGLEWMGWLNPNSGNTGYAQKFQGRVTMTADRSTSTAYMELSSLRSEDTAVYYCAREVPETAAFEYWGQGTLVTVSS
VL: QSVLTQPPSVSGAPGQRVTISCTSSSSDIGAGLGVHWYQQLPGTAPKLLIEGYYNRPSGVPDRFSGSKSGTSASLTITGLLPEDEGDYYCQSWDYTLSALFGGGTKLTVLG
notes: as for B2
Turning to B13, the “TL1A Binding Level (Late)” value in test [4] was 120 RU. For the same molecule, the “TL1A Binding Level (Early)” value in test [5] turned out to be 126 RU.
